The record followed here is article PMC4211652 (Biochemistry, 2014).

The data set “crystal structure” deals with the molecule itself. Put plainly: crystal structure.
Another data set addresses T1, S100B (rat), Ca2+-loaded (rat, UniProt P04631 1-92).
T1 sequence: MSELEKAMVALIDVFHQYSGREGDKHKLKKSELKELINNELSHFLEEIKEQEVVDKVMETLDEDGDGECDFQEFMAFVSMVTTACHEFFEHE
As to the kind of experiment: fluorescence polarisation. A general note: In fluorescence polarisation assays a small probe gives low polarisation when free and higher when bound to something large.

No end group written: not given here.

B1: Ca2+-bound S100B (bovine) covalently modified at Cys84 by SC124 (natural protein)
chain: MSELEKAVVALIDVFHQYSGREGDKHKLKKSELKELINNELSHFLEEIKEQEVVDKVMETLDSDGDGECDFQEFMAFVAMITTACHEFFEHE
modifications: Cys84 covalently bound to the adduct of SC124 (disulfiram)
For B1, the binding result in “crystal structure” was “binds”.

B2: Ca2+-bound S100B (bovine) covalently modified at Cys84 by SBi4172 (natural protein)
chain: MSELEKAVVALIDVFHQYSGREGDKHKLKKSELKELINNELSHFLEEIKEQEVVDKVMETLDSDGDGECDFQEFMAFVAMITTACHEFFEHE
modifications: Cys84 covalently bound to SBi4172 (chelerythrine); the compound could be modelled in chain B only
As for B2, the binding result in the data set “crystal structure” was “binds”.

B3: Ca2+-bound S100B (bovine) covalently modified at Cys84 by SC1982 (natural protein)
chain: MSELEKAVVALIDVFHQYSGREGDKHKLKKSELKELINNELSHFLEEIKEQEVVDKVMETLDSDGDGECDFQEFMAFVAMITTACHEFFEHE
modifications: Cys84 covalently bound to SC1982 (Rubescensin A) by Michael addition
For the molecule B3, the binding result in “crystal structure” is on record as “binds”.

B4: Ca2+-bound S100B (bovine) covalently modified at Cys84 by SBi4434 (natural protein)
chain: MSELEKAVVALIDVFHQYSGREGDKHKLKKSELKELINNELSHFLEEIKEQEVVDKVMETLDSDGDGECDFQEFMAFVAMITTACHEFFEHE
modifications: Cys84 covalently bound to SBi4434 (2,3-bis[(2-hydroxyethyl)thio]-1,4-naphthoquinone), the thiol replacing one thioglycol moiety
In the case of B4, the binding result in “crystal structure” is listed as “binds”.

B5: Ca2+-bound S100B (bovine) covalently modified at Cys84 by SC1475 (natural protein)
chain: MSELEKAVVALIDVFHQYSGREGDKHKLKKSELKELINNELSHFLEEIKEQEVVDKVMETLDSDGDGECDFQEFMAFVAMITTACHEFFEHE
modifications: Cys84 covalently bound to SC1475 (3,4-dimethoxydalbergione)
With B5, the binding result in the data set “crystal structure” is “binds”.
On to TRTKIDWNKILS (also: TAMRA label, position not given here) [TAMRA-labeled peptide TRTK12], for which, in the data set with S100B (rat), Ca2+-loaded, the binding result is listed as “binds”.
